Results reported in patent US20250250357A1 (NANJING ZAIMING PHARMACEUTICAL, published 2025).
Positions count from the first letter of the chain named.

B1: F7.44.20-H1 (scFv, not shown: small tags and cut ends)
scFv: EVQLVQSGAEVKKPGASVKVSCKASGYTFTDYNMDWVRQAPGQGLEWMGDINPSTGGTIYNQKFNGRVTMTEDKSTSTVYMELSSLRSEDTAVYYCARRRIGTGYFDVWGQGTTVTVSSGGGGSGGGGSGGGGSEIVLTQSPDFQSVTPKEKVTITCSASSSVISSYLSWYQQKPDQSPKLLIYRTSNLASGVPSRFSGSGSGTDFTLTINSLEAEDAATYYCHQWSSFPYTFGGGTKVEIK
notes: also called S009-F7.44.20 humanized antibody VH1 + VL1
B2: F7.44.20-H5 (scFv, not shown: small tags and cut ends)
scFv: B1 scFv with N65Q
notes: also called S009-F7.44.20 humanized antibody VH1a + VL1
B3: F7.44.20-H6 (scFv, not shown: small tags and cut ends)
scFv: B1 scFv with N65Q, F206Y
notes: also called S009-F7.44.20 humanized antibody VH1a + VL2
B4: F7.44.20-H2 (scFv, not shown: small tags and cut ends)
scFv: B1 scFv with F206Y
notes: also called S009-F7.44.20 humanized antibody VH1 + VL2
B5: F7.44.20-H9 (scFv, not shown: small tags and cut ends)
scFv: B1 scFv with T76A
notes: also called S009-F7.44.20 humanized antibody VH2 + VL1
B6: F7.44.20-H14 (scFv, not shown: small tags and cut ends)
scFv: B1 scFv with N65S, T76A, F206Y
notes: also called S009-F7.44.20 humanized antibody VH2a + VL2
B7: F7.44.20-H10 (scFv, not shown: small tags and cut ends)
scFv: B1 scFv with T76A, F206Y
notes: also called S009-F7.44.20 humanized antibody VH2 + VL2

biological target: T1, human MSLN-R3 protein (human, UniProt Q13421 487-598); assay: ELISA on coated antigen, antibody 0.001 nM
T1 construct: also called hMSLN-R3
T1 sequence (Q13421 495-606, form in doubt): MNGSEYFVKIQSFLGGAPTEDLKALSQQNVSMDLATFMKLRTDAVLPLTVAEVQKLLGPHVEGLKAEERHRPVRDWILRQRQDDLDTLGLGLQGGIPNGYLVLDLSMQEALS

Binder	OD450 [OD450]
B1	0.05
B2	0.04
B3	0.05
B4	0.05
B5	0.04
B6	0.04
B7	0.04

biological target: T2, human MSLN-hFc protein (Acro, Cat. No. MSN-H5253) (human, UniProt Q13421 296-580); assay: ELISA on coated antigen, antibody 0.001 nM
T2 construct: the method names the coated protein as human MSLN-hFc (Acro); also called human MSLN full-length protein
T2 sequence (Q13421 other isoform, or with tags, fused parts or gaps limits assumed): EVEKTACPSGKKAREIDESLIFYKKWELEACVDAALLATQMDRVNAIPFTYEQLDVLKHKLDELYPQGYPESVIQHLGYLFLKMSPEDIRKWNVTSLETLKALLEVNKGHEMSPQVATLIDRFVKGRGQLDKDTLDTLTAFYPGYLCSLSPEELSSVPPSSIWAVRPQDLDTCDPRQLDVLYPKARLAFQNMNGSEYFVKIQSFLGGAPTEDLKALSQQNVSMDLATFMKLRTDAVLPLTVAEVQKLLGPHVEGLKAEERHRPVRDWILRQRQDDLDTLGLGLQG

Binder	OD450 [OD450]
B1	0.05
B2	0.04
B3	0.05
B4	0.04
B5	0.05
B6	0.05
B7	0.04

biological target: T2, human MSLN-hFc protein (Acro, Cat. No. …); assay: ELISA on coated antigen, antibody 0.01 nM

Binder	OD450 [OD450]
B1	0.06
B2	0.05
B3	0.07
B4	0.05
B5	0.06
B6	0.07
B7	0.06

biological target: T2, human MSLN-hFc protein (Acro, Cat. No. …); assay: ELISA on coated antigen, antibody 1 nM

Binder	OD450 [OD450]
B1	1.46
B2	1.3
B3	1.95
B4	1.26
B5	1.3
B6	1.2
B7	1.44

biological target: T2, human MSLN-hFc protein (Acro, Cat. No. …); assay: ELISA on coated antigen, antibody 10 nM

Binder	OD450 [OD450]
B1	2.94
B2	3.01
B3	2.91
B4	2.71
B5	2.97
B6	2.89
B7	2.93

biological target: T2, human MSLN-hFc protein (Acro, Cat. No. …); assay: ELISA on coated antigen, antibody 0.0001 nM

Binder	OD450 [OD450]
B1	0.05
B2	0.04
B3	0.05
B4	0.04
B5	0.05
B6	0.05
B7	0.05

biological target: T1, human MSLN-R3 protein; assay: ELISA on coated antigen, antibody 0.1 nM

Binder	OD450 [OD450]
B1	0.16
B2	0.11
B3	0.21
B4	0.11
B5	0.11
B6	0.1
B7	0.11

biological target: T2, human MSLN-hFc protein (Acro, Cat. No. …); assay: ELISA on coated antigen, antibody 100 nM

Binder	OD450 [OD450]
B1	3.04
B2	2.94
B3	3.04
B4	3.06
B5	3.25
B6	3.13
B7	3.25

biological target: T1, human MSLN-R3 protein; assay: ELISA on coated antigen, antibody 100 nM

Binder	OD450 [OD450]
B1	2.3
B2	2.27
B3	2.12
B4	2.35
B5	2.52
B6	1.9
B7	2.44

biological target: T1, human MSLN-R3 protein; assay: ELISA on coated antigen, antibody 10 nM

Binder	OD450 [OD450]
B1	2.27
B2	2.05
B3	2.15
B4	2.22
B5	2.1
B6	1.69
B7	2.25

biological target: T2, human MSLN-hFc protein (Acro, Cat. No. …); assay: ELISA on coated antigen, antibody 0.1 nM

Binder	OD450 [OD450]
B1	0.22
B2	0.19
B3	0.37
B4	0.16
B5	0.19
B6	0.19
B7	0.24

biological target: T1, human MSLN-R3 protein; assay: ELISA on coated antigen, antibody 0.01 nM

Binder	OD450 [OD450]
B1	0.06
B2	0.04
B3	0.05
B4	0.05
B5	0.04
B6	0.04
B7	0.04

biological target: T1, human MSLN-R3 protein; assay: ELISA on coated antigen, antibody 0.0001 nM

Binder	OD450 [OD450]
B1	0.05
B2	0.05
B3	0.05
B4	0.05
B5	0.04
B6	0.04
B7	0.04

biological target: T1, human MSLN-R3 protein; assay: ELISA on coated antigen, antibody 1 nM

Binder	OD450 [OD450]
B1	1.16
B2	0.8
B3	1.31
B4	0.95
B5	0.72
B6	0.66
B7	0.81
